Assay results taken from patent US20210145878A1.
Changes are numbered by the printed parent chain. Blank lines part the entries; values can stand above or below the binder they belong to.

Tests used:
CD79b-AF647 = test: flow cytometry, CAR-transduced primary human T cells stained with recombinant human CD79b extracellular domain-AF647
[1] = target: recombinant human CD79b isoform-2 (short) (human) (UniProt P40259); test: SPR, Biacore 8k; scFv-Fc captured by anti-human Fc, CD79b as analyte; 1:1 Langmuir

Chain of CD79b-AF647 (chain, as listed by the source limits assumed): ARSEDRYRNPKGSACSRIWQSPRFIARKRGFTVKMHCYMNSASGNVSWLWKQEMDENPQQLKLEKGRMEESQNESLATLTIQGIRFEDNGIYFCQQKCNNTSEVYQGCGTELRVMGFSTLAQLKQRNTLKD

- aCD79b CAR+ (frequency of CAR+ cells) (CD79b-AF647): 0.048
B1: SN8 #51 (protein, part only; not given: hinge, transmembrane and signaling domains, part only)
CAR polypeptide, part: DIVLTQSPDSLAVSLGERATINCKASQSVDYEGDSFLNWYQQKPGQPPKLLIYAASNLESGVPDRFSGSGSGTDFTLTISSLQAEDVAVYYCQQSNEDPLTFGGGTKVEIKGGSEGKSSGSGSESKSTGGSQVQLVQSGAEVKKPGASVKVSCKASGYTFTGYWIEWVRQAPGQGLEWMGEILPGGGDTNYNQKFQGKVTFTRDTSTSTAYMELSSLRSEDTAVYYCARRVPVYFDYWGQGTLVTVSS

- Kd [1]: 11.5 nM
B2: CD9W23 LH scFv-Fc (Fc fusion, not shown: a dimerising Fc or GST)
chain: B1 CAR polypeptide, part with E32D, A171R

- Kd [1]: 6.9 nM
B3: CD9W59 LH scFv-Fc (Fc fusion, not shown: a dimerising Fc or GST)
chain: B1 CAR polypeptide, part with E32D, A210V
